Biological target: the molecule itself
Assay: cryo-EM structure

B1: human INF2 (inverted formin-2) residues 469-1249 (domain or fragment)
chain: not shown
B1: binds.
